# Results as given in US20190233507A1 (CORNELL UNIVERSITY, published 2019).
# Biological target: β-galactosidase (UniProt P00722 2-1024 = β-galactosidase, limits assumed)
# Test: ELISA, plate coated with 1 µg β-gal per well, anti-FLAG-HRP detection
# From the text: FIGS. 1A-D illustrate ubiquibody expression and binding. FIG. 1A is a schematic depiction of pET28a constructs used to express ubiquibodies (“uAb”) in E. coli, which includes single chain Fv antibody fragment (“scFv”), GSGSG linker (“˜”), human C-terminus of Hsc70-interacting protein (“CHIP”) without the N-terminal TPR domain (“[…]”), a FLAG-tag (“F”) and a 6×His-tag (“H6”). FIG. 1B is a western blot of the soluble fractions isolated from BL21(DE3) E. coli cells expressing wild-type human CHIP, inactivated CHIPH260Q, CHIPΔTPR, scFv13R4, scFv13R4-uAb, scFv13-uAb and scFvD10-uAb. An equivalent amount of total protein was loaded in each lane and expression was assayed using anti-FLAG-HRP. FIG. 1C is a graph showing ELISA results where a plate was coated with 1 μg β-gal per well and incubated with 160 ng of purified protein per well. Samples were performed in triplicate and error bars represent the standard deviation of the mean. […]
# Briefly, ELISAs were performed using a 96-well plate coated with antigen (β-gal, gpD or Hsp70) at a concentration of 10 μg/mL (1 μg of antigen per well) and incubated overnight at 4° C. […] The amount of bound anti-flag-HRP was determined by using SigmaFAST™ o-phenylenediamine dihydrochloride (OPD) tablets for detection of peroxidase activity at 492 nm.
# β-galactosidase, sequence (P00722 2-1024 limits assumed): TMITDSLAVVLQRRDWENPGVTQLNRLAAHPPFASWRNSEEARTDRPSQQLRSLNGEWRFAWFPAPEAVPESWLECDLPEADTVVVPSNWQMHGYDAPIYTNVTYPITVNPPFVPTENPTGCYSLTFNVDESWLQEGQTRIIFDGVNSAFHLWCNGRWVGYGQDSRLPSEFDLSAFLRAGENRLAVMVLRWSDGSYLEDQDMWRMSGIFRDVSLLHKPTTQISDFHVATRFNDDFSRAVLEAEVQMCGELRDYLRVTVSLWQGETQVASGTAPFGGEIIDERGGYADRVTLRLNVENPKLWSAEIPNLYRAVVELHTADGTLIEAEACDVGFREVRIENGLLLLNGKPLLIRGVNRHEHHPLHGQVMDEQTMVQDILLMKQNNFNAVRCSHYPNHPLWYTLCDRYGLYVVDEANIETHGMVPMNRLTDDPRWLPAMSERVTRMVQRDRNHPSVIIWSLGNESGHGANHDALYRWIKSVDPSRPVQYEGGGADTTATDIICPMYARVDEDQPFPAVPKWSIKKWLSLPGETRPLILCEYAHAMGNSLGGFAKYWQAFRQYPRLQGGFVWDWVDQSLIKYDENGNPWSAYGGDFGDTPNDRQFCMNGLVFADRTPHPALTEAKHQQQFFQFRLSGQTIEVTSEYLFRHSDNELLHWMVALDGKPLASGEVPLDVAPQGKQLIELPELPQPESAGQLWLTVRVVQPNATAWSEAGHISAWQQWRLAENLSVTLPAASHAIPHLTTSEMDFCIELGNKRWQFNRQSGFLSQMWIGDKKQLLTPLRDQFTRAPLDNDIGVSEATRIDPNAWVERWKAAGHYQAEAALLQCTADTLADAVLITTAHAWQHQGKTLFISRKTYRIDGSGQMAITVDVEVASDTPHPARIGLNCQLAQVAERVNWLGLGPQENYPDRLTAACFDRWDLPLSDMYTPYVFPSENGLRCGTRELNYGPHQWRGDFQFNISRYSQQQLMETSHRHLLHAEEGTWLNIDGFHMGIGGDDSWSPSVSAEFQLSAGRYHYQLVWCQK
binder,measurement,value
"CHIPΔTPR (Construct 3: hCHIPdTPR-FLAGtag-His6tag) (enzyme, Control protein, purified from E. coli) MGRLNFGDDIPSALRIAKKKRWNSIEERRIHQESELHSYLSRLIAAERERELEECQRNHEGDEDDSHVRAQQACIEAKHDKYMADMDELFSQVDEKRKKRDIPDYLCGKISFELMREPCITPSGITYDRKDIEEHLQRVGHFDPVTRSPLTQEQLIPNLAMKEVIDAFISENGWVEDYVDGADYKDDDDKGHHHHHH",binding result,no binding (tested: 160 ng of purified protein per well)
